This sample holds only a part of the variants without activity.
B1: TPR 5TU (parent)
chain: GGAUCUUCUCGAUCUAACAAAAAAGACAAAUCUGCCACAAAGCUUGAGAGCAUCUUCGGAUGCAGAGGCGGCAGCCUUCGGUGGCGCGAUAGCGCCAACGUUCUCAACUAUGACACGCAAAACGCGUGCUCCGUUGAAUGGAGUUUAUCAUG

Variants of: B1
Assay: polymerase ribozyme fitness, log enrichment relative to wild type (log ratio); higher = more active; in vitro selection for triplet polymerase activity
Procedure, shortened: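 Only genotypes with ≥10 input reads and ≥1 read per output were kept after Illumina sequencing of input and output libraries. These libraries were PCR-built, transcribed mutants of each subunit of a heterodimeric triplet polymerase ribozyme, each put through one triplicate in vitro selection round with frozen incubation at −7 °C, gel excision of extended constructs, streptavidin-bead capture and RT-PCR. Fitness is a logarithmic ratio of genotype enrichment to wild-type enrichment, from inverse-variance-weighted replicate averages, with the logarithm in base 2.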

| Variant | polymerase ribozyme fitness (log ratio) |
| --- | --- |
| A22U G140A | -2.83 |
| A24C A49U C87A G92A G140U | ≤ -4.2 |
| A23G C35U C51U C93G A121G A122U | ≤ -4.2 |
| A23G C85U | -2.38 |
| A22U A47G U56C G92C C105U | -3.13 |
| A23G C35U U56A C85A C118U G124U | -4.08 |
| A22U A37U C95U U146A | -1.67 |
| A22U U82G C93A G124U C125U | -2.61 |
| G25C A41C A47C G83U A89U A121C C125G A142C C149G A150U G152A | ≤ -4.2 |
| A24U U56A | 0.265 |
| A23U A29C C85G A110G G112U | ≤ -4.2 |
| A24U A60G C79G C96G U109C | ≤ -4.2 |
| A24G A49C C51A U78G G81C | ≤ -4.2 |
| A22U A30U C95U U134A | ≤ -4.2 |
| A24U A26C A29U A40U A52G G62U C85U | ≤ -4.2 |
| G25A A28U G94A U102A A137C | ≤ -4.2 |
| A23C C79A C103U A138G G143C | ≤ -4.2 |
| A24U G84U | -2.26 |
| A22G U56A C96G U101C G143A U148A | ≤ -4.2 |
| A24U U77A G92A C125G | ≤ -4.2 |
| A24U U45G G86A | -2.58 |

| Variant | polymerase ribozyme fitness (log ratio) |
| --- | --- |
| A24U A28G A29U C93G C114U | ≤ -4.2 |
| A24G C27G A28G C32A U55A U56A C76A C85A G92C U130G | ≤ -4.2 |
| A22U G84U | -1.67 |
| A23C C108G A115G A138U U148C | ≤ -4.2 |
| A23U G42U G58U C75U U148G | ≤ -4.2 |
| A23G G50C | -4 |
| A23C G25C C27G U53A C54G A66G G80A A91G G92A C99U | ≤ -4.2 |
| A22U U55G A73C G86A C116A A142U | ≤ -4.2 |
| A23G C87U U127C | -3.81 |
| A24U G88C C95G C123G | ≤ -4.2 |
| A22U G141C | 1.14 |
| A24U A97G U151C | ≤ -4.2 |
| A23G U44A G88A | -4.1 |
| A24C C75A A106U C132G U139C A142U | ≤ -4.2 |
| A23U U61A A107U A115G | ≤ -4.2 |
| G25C G86A G94U | -3.91 |
| A23U C27G A37U C95G A110G G140C | -3.86 |
| A23G A40C G141C | -3.82 |
| A24U A52C | -0.457 |
| A22U C54A | -0.932 |
| A23G U44G U53G A91C C95U C103A G117A A121C G126A | ≤ -4.2 |

| Variant | polymerase ribozyme fitness (log ratio) |
| --- | --- |
| G25U A52G U56A A60G G133C | -4.06 |
| A24C G42A A52G U55A C76U C123G G126A | ≤ -4.2 |
| A23C G58A G62A C87A C116G U135G | ≤ -4.2 |
| A22U C54A A91G | -3.53 |
| A23C A39G C63U U104C C108G U135C | ≤ -4.2 |
| A23U G83U C93A G126U C129U | ≤ -4.2 |
| A23C C57U G74C G92U U102A A115C G143C U151A | ≤ -4.2 |
| A23U A28G U55A G59A U78G G128A | -3.79 |
| A22U U53A G88A C116G A142G A150C | ≤ -4.2 |
| A23G C38U U61A C69A C76U C96G C116U G117U | ≤ -4.2 |
| G25C A26U A30U A39U U56G U77A A138U | ≤ -4.2 |
| A22U G58C C87U U135C | -2.68 |
| A23U U55A U61C G67A C87U G126U G136C G140U | ≤ -4.2 |
| A24C G34A C96G G117C U135G U139A U145A | ≤ -4.2 |
| A22U A24C A40U U55A C85A G117C G136U A138C | ≤ -4.2 |
| A24U G48A A49G G50A U55A C123A G136C | ≤ -4.2 |
| G25U A52C C87A U90G A142G | ≤ -4.2 |
| A22G U144C | 0.51 |
| A22U A30G C85G U104A C105A U111G | ≤ -4.2 |
| A24U A121U G124U | -1.16 |
| A24C C27A U56A G58A C72U A73U C87U | ≤ -4.2 |

| Variant | polymerase ribozyme fitness (log ratio) |
| --- | --- |
| A24C U33A C35G U53A U82C G92U G136A | ≤ -4.2 |
| A23G U90A C93U C105U C125U | ≤ -4.2 |
| A23G U44A U56A | ≤ -4.2 |
| A24U C72U G84U C118U A142G | -3.98 |
| A22U G92C C93U A119G | -3.96 |
| A24U A37G | -2.41 |
| A24C A73G G86U C99G C149G | ≤ -4.2 |
| A22U A24G U31A U56G C79U U90G C95U A97C A120U C125G | ≤ -4.2 |
| A24U G34C C79G C87U A137U | ≤ -4.2 |
| G25C A52C U53A C87U G92C A98G U104G C108G U135G | ≤ -4.2 |
| G25U C35U G86C C103U G133U | ≤ -4.2 |
| A22U A29G C35G U44G C57U C114A | ≤ -4.2 |
| A23U A29U C85A A115G G143C | ≤ -4.2 |
| A23C A40C G83U U102A U145A | ≤ -4.2 |
| A23U A26U U33G A37C C72G C76A C95G U144C | ≤ -4.2 |
| A23C A29G G81A G84U A122G G126A U135A | ≤ -4.2 |
| A23C A47G C96A | ≤ -4.2 |
| G25C A52C G84U | ≤ -4.2 |
| G25C A26C | -2.94 |
| A23U A40U A73G | ≤ -4.2 |
